The results in this text go back to US20240101688A1 (MYTHIC THERAPEUTICS, published 2024).

The target of assay [1] is T1, MET (cMET, Sino Biological Cat. No. 10692-H08H) (UniProt P08581 25-932).
T1 construct: Soluble analyte of the BLI assays
As to the kind of experiment: BLI: antibody captured on anti-human Fc biosensor, MET in solution; one run at pH 7.4 (black) and one at pH 5.4 (grey); association 0-120 s, then dissociation. Here is the method: After allowing for four days of protein expression, cell culture supernatants were collected, quantified by SDS-PAGE analysis, and the pH dependence of the variant was evaluated using biolayer interferometry (BLI) on an Octet RED 96e instrument. Briefly, cell culture supernatants were diluted based on qualitative expression level of the variant determined by visual examination of SDS-PAGE gels, 5 μL of cell culture supernatant was diluted into 195 μL of 1×PBST, pH 7.4 for high expressors, 25 μL of cell culture supernatant was diluted into 175 μL of 1×PBST, pH 7.4 for medium expressors and 100 μL of cell culture supernatant was diluted into 100 μL of 1×PBST, pH 7.4 for low expressors for loading onto the sensor tips. Diluted supernatants were then captured on an anti-human Fc sensor (Forte Bio).

The target in assay [2] is T2, MET Proto-Oncogene, Receptor Tyrosine Kinase (MET), on cells (human, UniProt P08581 25-1390).
T2 construct: also called cMET; c-Met
T2 sequence (P08581 25-1390): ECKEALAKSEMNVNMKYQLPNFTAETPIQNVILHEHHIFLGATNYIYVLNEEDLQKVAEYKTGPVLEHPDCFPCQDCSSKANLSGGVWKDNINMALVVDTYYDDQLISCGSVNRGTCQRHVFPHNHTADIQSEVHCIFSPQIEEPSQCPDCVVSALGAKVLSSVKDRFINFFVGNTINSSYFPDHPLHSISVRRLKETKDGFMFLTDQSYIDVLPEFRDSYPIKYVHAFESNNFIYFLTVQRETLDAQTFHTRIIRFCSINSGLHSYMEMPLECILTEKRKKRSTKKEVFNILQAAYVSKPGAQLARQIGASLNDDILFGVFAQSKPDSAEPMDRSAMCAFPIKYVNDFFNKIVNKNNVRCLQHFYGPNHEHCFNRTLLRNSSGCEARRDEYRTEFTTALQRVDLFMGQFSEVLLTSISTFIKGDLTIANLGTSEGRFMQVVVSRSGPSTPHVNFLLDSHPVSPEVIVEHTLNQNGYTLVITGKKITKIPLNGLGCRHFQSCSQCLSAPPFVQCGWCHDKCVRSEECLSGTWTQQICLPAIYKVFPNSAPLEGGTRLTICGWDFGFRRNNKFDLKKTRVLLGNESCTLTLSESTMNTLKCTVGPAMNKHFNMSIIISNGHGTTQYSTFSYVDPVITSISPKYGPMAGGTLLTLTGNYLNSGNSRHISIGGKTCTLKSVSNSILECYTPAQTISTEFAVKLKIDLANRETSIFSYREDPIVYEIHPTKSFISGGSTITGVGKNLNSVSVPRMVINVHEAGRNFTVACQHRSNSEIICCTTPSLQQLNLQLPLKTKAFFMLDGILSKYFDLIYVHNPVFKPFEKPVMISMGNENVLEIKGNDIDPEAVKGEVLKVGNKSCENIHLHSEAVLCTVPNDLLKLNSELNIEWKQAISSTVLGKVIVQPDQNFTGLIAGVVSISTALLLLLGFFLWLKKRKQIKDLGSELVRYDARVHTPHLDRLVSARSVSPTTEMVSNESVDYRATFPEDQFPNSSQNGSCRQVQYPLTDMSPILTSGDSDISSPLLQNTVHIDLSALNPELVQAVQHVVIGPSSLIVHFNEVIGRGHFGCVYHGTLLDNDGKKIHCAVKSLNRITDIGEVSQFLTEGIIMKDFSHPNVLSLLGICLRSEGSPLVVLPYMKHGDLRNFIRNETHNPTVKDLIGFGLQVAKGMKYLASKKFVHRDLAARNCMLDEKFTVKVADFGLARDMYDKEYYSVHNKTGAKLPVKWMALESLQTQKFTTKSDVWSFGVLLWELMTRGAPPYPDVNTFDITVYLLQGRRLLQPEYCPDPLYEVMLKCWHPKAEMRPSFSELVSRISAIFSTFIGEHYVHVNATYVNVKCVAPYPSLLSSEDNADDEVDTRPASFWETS
As to the kind of experiment: affinity on HUVEC against affinity on Detroit-562, flow cytometry, pH 7.4. Here is the method:
(§1) Measurement of the affinity of pH-engineered antibodies specific for MET was performed by FACS analysis on cell lines with ranges of cMET expression; Detroit-562 cells (ATCC; CCL-138), NCI-H1975 (ATCC CRL-5908) and HUVEC (C2519A, Lonza). Cell lines selected for this study were obtained from commercial sources and cultured using manufacturer recommended conditions. All cell lines were cultured upon receipt, expanded and cryopreserved at a similar passage number for use in the affinity experiments. Briefly, 1.0×10\hat{ }5 cells that express MET are plated per well in a 96-well plate in 100 μL media. The cells are washed two times with 200 μL of FACS buffer (1×PBS containing 3% Fetal Bovine Serum) at pH 7.4. The purified protein samples are diluted into FACS buffer at pH 7.4, for a titration from 100 nM to 1 pM, and added to the cells and allowed to bind for 2 hours on ice. After incubation with the primary antibodies, cells are washed twice as before, and then 100 μl of secondary goat anti-Human AF488 (IgG Cross-Adsorbed polyclonal secondary antibody), diluted 1:200, is added in FACS buffer pH 7.4, and incubated for 1 hour on ice. The plates are washed twice Binding is read on a flow cytometer (Accuri C6, BD Biosciences). Binding is observed as a shift in the FL1 signal (as a mean fluorescence intensity) versus secondary alone.
Background: A flow cytometer gives signals particle by particle.

Assay [3] addresses T2, MET Proto-Oncogene, Receptor Tyrosine …. As to the kind of experiment: flow cytometry titration on Detroit-562 cells (125K/cell), pH 7.4; printed as Affinity at pH 7.4. Here is the method: as §1
The target is the same in assay [4]. As to the kind of experiment: flow cytometry titration on HUVEC cells (8k/cell), pH 7.4; printed as Affinity at pH 7.4; HUVEC cells (8k/cell), pH 7.4. As for the experimental part:
as §1

In assay [5] the target is T1, MET (cMET, Sino Biological Cat. No. …). As to the kind of experiment: BLI: antibody captured on anti-human Fc biosensor, MET in solution; three runs: pH 7.4 throughout, pH 6.4 throughout, association at pH 7.4 then release at lower pH (key on the sheet: pH 5.4; legend paragraph 84: pH 6.4); association 0-120 s. In general terms: In BLI a coated tip is dipped into the sample, and binding shifts an interference pattern.

T1 sequence (P08581 25-932 limits assumed): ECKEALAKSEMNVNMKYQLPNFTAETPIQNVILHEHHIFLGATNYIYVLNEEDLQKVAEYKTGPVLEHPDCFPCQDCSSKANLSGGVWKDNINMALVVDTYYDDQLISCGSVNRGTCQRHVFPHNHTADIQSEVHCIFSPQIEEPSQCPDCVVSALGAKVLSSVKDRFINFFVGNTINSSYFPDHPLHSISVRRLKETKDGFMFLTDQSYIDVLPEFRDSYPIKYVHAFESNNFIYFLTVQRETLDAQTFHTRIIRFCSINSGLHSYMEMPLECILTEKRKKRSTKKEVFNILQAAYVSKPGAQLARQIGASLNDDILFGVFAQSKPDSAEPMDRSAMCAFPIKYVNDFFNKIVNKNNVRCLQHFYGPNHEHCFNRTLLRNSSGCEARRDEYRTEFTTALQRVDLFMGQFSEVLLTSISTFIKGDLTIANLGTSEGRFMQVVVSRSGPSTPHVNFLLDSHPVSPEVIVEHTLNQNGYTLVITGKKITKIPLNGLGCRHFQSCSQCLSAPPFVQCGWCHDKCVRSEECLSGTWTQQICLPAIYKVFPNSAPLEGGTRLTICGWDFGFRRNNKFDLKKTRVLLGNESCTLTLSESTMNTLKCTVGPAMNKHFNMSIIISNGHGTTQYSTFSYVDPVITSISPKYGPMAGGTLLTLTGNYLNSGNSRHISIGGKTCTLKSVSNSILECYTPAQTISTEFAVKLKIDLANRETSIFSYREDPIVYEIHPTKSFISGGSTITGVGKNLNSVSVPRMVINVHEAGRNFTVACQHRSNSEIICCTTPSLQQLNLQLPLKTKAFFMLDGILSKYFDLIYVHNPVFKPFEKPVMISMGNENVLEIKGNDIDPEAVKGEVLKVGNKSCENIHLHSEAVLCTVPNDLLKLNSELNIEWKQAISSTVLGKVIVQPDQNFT

B1: MYT4313 (antibody, V domains shown)
VH: QVQLVQSGAEVKKPGASVKVSCKASGYTFTSYWMHWVKQAPGQGLDWIGYIKPSTDNTHYNQKFKDKATLTADKSTSTAYMELSSLRSEDTAVYYCARSYGHYPLMDYWGQGTTVTVSS
VL: QIVLTQSPAILSLSPGERATLSCSASSSVTSNYLYWYQQKPGSSPKLLIYSTSNLASGVPARFSGSGSGTSYTLTISSLEAEDAASYFCHQWSSYPPTFGSGTKLEIKR
notes: P3D12 variant
As to B1, the binding result in assay [1] is recorded as “binds”.

B2: MYT4325 (antibody, V domains shown)
VH: QVQLVQSGAEVKKPGASVKVSCKASGYTFTSYWMHWVKQAPGQGLDWIGYIKPSTDNTHYNQKFKDKATLTADKSTSTAYMELSSLRSEDTAVYYCARSYGHYPLMHYWGQGTTVTVSS
VL: QIVLTQSPAILSLSPGERATLSCSASSSVTSNYLYWYQQKPGSSPKLLIYSTSNLASGVPARFSGSGSGTSYTLTISSLEAEDAASYFCHQWSSYPPTFGSGTKLEIKR
notes: P3D12 variant
Take B2: the “Fold Avidity” value in assay [2] was above 220 fold. Also, the figures for the equilibrium dissociation constant (Kd) in assay [3] and in assay [4] were 0.903 nM and above 200 nM, respectively.

B3: MYT4940 (antibody, V domains shown)
VH: QVQLVQSGAEVKKPGASVKVSCKASGYIFTAYTMHWVRQAPGQGLEWMGWIKPNNGLANYAQKFQGRVTMTRDTSISTAYMELSRLRSDDTAVYYCARHEITTEFDHWGQGTLVTVSS
VL: DIVMTQSPDSLAVSLGERATINCKSSESVDSYANSHLHWYQQKPGQPPKLLIYRASTRESGVPDRFSGSGSGTDFTLTISSLQAEDVAVYYCQQSKEDPLTFGGGTKVEIKR
notes: Telisotuzumab variant
For the molecule B3, the binding result in assay [5] is “binds”.

In general, Kd refers to the equilibrium constant for the complex coming apart.
